{"source": "patent US11225653B2", "about": "“Methods and compounds for reducing threonyl-tRNA synthetase activity” (University of Vermont and State Agricultural College, priority 2012, dated 2022)", "molecules": {"B1": {"name": "L567V TARS: BC194-resistant (borrelidin-resistant) L567V mutant of human TARS (protein, UniProt P26639 1-723, looked up, variant L567V)", "Threonine--tRNA ligase 1, …": "MFEEKASSPSGKMGGEEKPIGAGEEKQKEGGKKKNKEGSGDGGRAELNPWPEYIYTRLEMYNILKAEHDSILAEKAEKDSKPIKVTLPDGKQVDAESWKTTPYQIACGISQGLADNTVIAKVNNVVWDLDRPLEEDCTLELLKFEDEEAQAVYWHSSAHIMGEAMERVYGGCLCYGPPIENGFYYDMYLEEGGVSSNDFSSLEALCKKIIKEKQAFERLEVKKETLLAMFKYNKFKCRILNEKVNTPTTTVYRCGPLIDLCRGPHVRHTGKIKALKIHKNSSTYWEGKADMETLQRIYGISFPDPKMLKEWEKFQEEAKNRDHRKIGRDQELYFFHELSPGSCFFLPKGAYIYNALIEFIRSEYRKRGFQEVVTPNIFNSRLWMTSGHWQHYSENMFSFEVEKELFALKPMNCPGHCLMFDHRPRSWRELPLRLADFGVLHRNELSGALTGLTRVRRFQQDDAHIFCAMEQIEDEIKGCLDFLRTVYSVFGFSFKLNLSTRPEKFLGDIEVWDQAEKQLENSLNEFGEKWELNSGDGAFYGPKIDIQIKDAIGRYHQCATIQLDFQVPIRFNLTYVSHDGDDKKRPVIVHRAILGSVERMIAILTENYGGKWPFWLSPRQVMVVPVGPTCDEYAQKVRQQFHDAKFMADIDLDPGCTLNKKIRNAQLAQYNFILVVGEKEKISGTVNIRTRDNKVHGERTISETIERLQQLKEFRSKQAEEEF"}, "B2": {"name": "R442A TARS: aminoacylation-deficient mutant of hTARS, active site Arg442 substituted with alanine (protein, UniProt P26639 1-723, looked up, variant R442A)", "Threonine--tRNA ligase 1, …": "B1 Threonine--tRNA ligase 1, … with R442A, V567L"}, "B3": {"name": "E. coli ThrRS: bacterial (E. coli) threonyl-tRNA synthetase (protein, UniProt P0A8M3 1-642, looked up)", "Threonine--tRNA ligase": "MPVITLPDGSQRHYDHAVSPMDVALDIGPGLAKACIAGRVNGELVDACDLIENDAQLSIITAKDEEGLEIIRHSCAHLLGHAIKQLWPHTKMAIGPVIDNGFYYDVDLDRTLTQEDVEALEKRMHELAEKNYDVIKKKVSWHEARETFANRGESYKVSILDENIAHDDKPGLYFHEEYVDMCRGPHVPNMRFCHHFKLMKTAGAYWRGDSNNKMLQRIYGTAWADKKALNAYLQRLEEAAKRDHRKIGKQLDLYHMQEEAPGMVFWHNDGWTIFRELEVFVRSKLKEYQYQEVKGPFMMDRVLWEKTGHWDNYKDAMFTTSSENREYCIKPMNCPGHVQIFNQGLKSYRDLPLRMAEFGSCHRNEPSGSLHGLMRVRGFTQDDAHIFCTEEQIRDEVNGCIRLVYDMYSTFGFEKIVVKLSTRPEKRIGSDEMWDRAEADLAVALEENNIPFEYQLGEGAFYGPKIEFTLYDCLDRAWQCGTVQLDFSLPSRLSASYVGEDNERKVPVMIHRAILGSMERFIGILTEEFAGFFPTWLAPVQVVIMNITDSQSEYVNELTQKLSNAGIRVKADLRNEKIGFKIREHTLRRVPYMLVCGDKEVESGKVAVRTRRGKDLGSMDVNEVIEKLQQEIRSRSLKQLEE"}}, "key": {"[1]": {"test_system": "HUVECs", "experiment": "Quantitative RT-PCR of TARS mRNA", "format": "cell-based, human", "conditions": "HUVECs exposed to 50 ng/ml VEGF or TNF-α", "procedure": "Quantitative RT-PCR—Total RNA was extracted from cells using the RNeasy column protocol and cDNA was generated using an Omniscript reverse transcriptase assay according to the manufacturer's instructions (Qiagen, Frederick, Md.). Primers and probes for TARS and β2-microglobulin were Assays-on-Demand (Applied Biosystems, [Life Technologies, Carlsbad, Calif.]). RT-qPCR was performed using an ABI prism 7700 Sequence Detection System (Applied Biosystems). The relative quantity of mRNA level was determined using the comparative CT (ΔΔCT) method using β2-microglobulin to normalize mRNA level (Cassavaugh, Hale et al. 2011)."}, "[2]": {"test_system": "chorioallantoic membrane (CAM)", "experiment": "Chick chorioallantoic membrane (CAM) assay", "format": "in vivo, chicken", "conditions": "for vessel formation / vascularization on the CAM after applied protein: purified protein applied daily to sponge, scored over 72 h", "procedure": "Chick Chorioallantoic Membrane Assay-Fertilized chicken eggs (Sunrise Farms, Catskill, N.Y.) day 1-2 post-laying were incubated in a humidified incubator at 37° C. for 72 h. Cleaned eggs were cracked and plated in a sterile 10 cm^2 tissue culture-treated dish and incubated at 37° C. for another 7 days. On developmental day 10, 1 mm^3 sterile gelatin sponge pieces (Surgifoam®; Johnson & Johnson Wound Management, Somerville, N.J.) were placed within the outer one-third of the membrane between large vessels. 40 μg/ml human bFGF and 2 μg/mL human VEGF were used as pro-angiogenic control compounds; 100 μg/mL retinoic acid (Sigma-Aldrich, St. Louis, Mo.) diluted in phosphate-buffered saline (PBS) was used as an angiostatic control. All compounds were applied in 10 μl to the CAM every 24 h for 72 h. Images were taken using a Leica MZ6 stereomicroscope every 24 h. Compounds were scored according to a modified version of Intensity Scoring as previously described (Ribatti, Nico et al. 2006). Briefly, each experimental condition was given a blinded score from 0-5 based on the change in the extent of vessel convergence and formation in proximity to the sponge from day 0 to day 3. Total score is averaged individual experimental condition scores from at least 15 replicates.\nFertilized chicken embryos were cultured ex-ova and, starting at developmental day 10, agents were applied daily to gelfoam sponges on the CAM. Images were recorded daily over 72 h and scored blindly according to a modified version Intensity Scoring as previously described (Ribatti, Nico et al. 2006). Additional details regarding methods are provided in the Methods and Materials section of Example 1."}, "[3]": {"test_system": "human TARS", "experiment": "Steady state aminoacylation assay", "format": "biochemical", "conditions": "purified protein", "procedure": "Steady State Aminoacylation Assay-The aminoacylation activities of the TARS constructs were determined using modifications to established procedures ([…] et al 2008). Briefly, reaction mixtures consisted of 20 mM Tris-HCl pH 8.0, 100 mM KCl, 10 mM MgCl2, 1 mM dithiothreitol, 2 mM ATP, 2.5 U pyrophosphatase (Roche), 80 μM threonine, 20 μM [14C]-threonine, and 5 μM of E. coli or human […]. Reactions were initiated with the addition of 0.25-0.75 μM TARS and run at 37° C. Aliquots were taken at varying time points and spotted onto Whatmann 3MM paper filters pre-soaked in 5% trichloroacetic acid (TCA). Upon completion, the filters were washed 3 times in excess TCA, once in 95% ethanol, and dried under a heating lamp. The formation of […] was detected by scintillation counter and the activity determined by linear regression of […] formed per active site per unit time."}, "[4]": {"test_system": "human TARS", "experiment": "GTPase assay (GTP hydrolysis)", "format": "biochemical", "conditions": "2 mM GTP"}, "[5]": {"test_system": "human TARS", "experiment": "Ap4A formation assay", "format": "biochemical", "conditions": "5 μM enzyme, 2 mM threonine, 2 mM ATP", "procedure": "TARS purification and active site determination were performed as previously described (Williams, Mirando et al., 2013). TARS non-canonical catalytic activities were characterized using modifications from published methods (Guo, Chong et al. 2009). For Ap4A reactions 5 μM of wildtype TARS or R442A TARS were incubated for 10 minutes on ice with 2 mM threonine, and 10 μM BC194 or borrelidin as indicated in FIG. 17C. Reactions were initiated using 2 mM ATP with trace amounts of [α-^32P]-ATP as label. At specific time points aliquots were quenched in 3 volumes of 0.1% SDS, 400 mM sodium acetate and resolved on polyethyleneimine-cellulose plates by thin-layer chromatography (TLC) in 3 M NH4 (SO4)2 and 2% EDTA. Radioactive counts were identified by phosphorimaging and products quantified as fractions of total ATP added. The quantitation of product was normalized to take into account the fact that each Ap4A molecule has two equivalents of radioactive phosphorus."}, "[6]": {"test_system": "human TARS", "experiment": "Ap4G formation assay", "format": "biochemical", "conditions": "2 mM ATP, 2 mM threonine, 2 mM GTP"}}, "note": "Substitutions are numbered along the chain they refer to. Names and notes keep the numbering of the source. “Also recorded” adds a separate entry of the source."}
{"molecule": "VEGF", "values": [{"measurement": "TARS mRNA / transcription", "setting": "[1]", "value": "neither VEGF nor TNF-α induced an increase; also recorded: do not induce TARS transcription"}]}
{"molecule": "TNF-α", "values": [{"measurement": "TARS mRNA / transcription", "setting": "[1]", "value": "neither VEGF nor TNF-α induced an increase; also recorded: do not induce TARS transcription"}]}
{"molecule": "B1", "values": [{"measurement": "sensitivity of protein-stimulated CAM vessel formation to BC194", "setting": "[2]; protein applied together with BC194", "value": "not inhibited by application of BC194"}, {"measurement": "vessel formation / vascularization on the CAM after applied protein", "setting": "[2]", "value": "stimulated vessel formation"}, {"measurement": "aminoacylation activity of the protein", "setting": "[3]", "value": "activity is not compromised"}]}
{"molecule": "B2", "values": [{"measurement": "GTP hydrolysis", "setting": "[4]", "value": 0.2137, "unit": "GDP/active site/min"}, {"measurement": "production of Ap4A", "setting": "[5]", "value": "no appreciable activity; also recorded: blocked"}, {"measurement": "vessel formation / vascularization on the CAM after applied protein", "setting": "[2]", "value": "virtually indistinguishable from wild type"}, {"measurement": "rate of Ap4G formation", "setting": "[6]", "value": "not catalyzed; also recorded: blocked"}, {"measurement": "aminoacylation activity of the protein", "setting": "[3]", "value": "essentially no aminoacylation activity; also recorded: virtually negligible aminoacylation function"}]}
{"molecule": "B3", "values": [{"measurement": "GTP hydrolysis", "setting": "[4]", "value": "not"}, {"measurement": "production of Ap4A", "setting": "[5]", "value": 0.5612, "unit": "Ap4A/active site/min"}, {"measurement": "rate of Ap4G formation", "setting": "[6]", "value": 0.5612, "unit": "Ap4G/active site/min"}]}
